Laboratory results: patent US8530235B2, “Medium that supports culture of an oocyte and modulation of granulosa cell apoptosis” (Adelaide Research & Innovation Pty Ltd., priority 2005, dated 2013)

Assays:
[1] = system: cumulus expansion of oocytectomised (OOX) complexes; test: FSH-induced cumulus expansion score of OOX complexes; format: cell-based, mice; conditions: score 0 (no expansion) to +4 (maximum expansion); mean ±SEM; OOX complexes with FSH
Experimental: Members of the TGF-β superfamily are prime candidates for the mouse cumulus expansion-enabling factor (CEEF). This study was conducted to examine TGF-β superfamily processes regulating cumulus expansion. COCs were collected from eGG-primed mice and the oocyte microsurgically removed to generate oocytectomised (OOX) complexes. […] The type-I receptors for GDF9 and […] are ALK5 and ALK4, respectively. We tested the ability of an ALK4/5/7 kinase inhibitor to neutralize cumulus expansion.

[2] = system: Smad 3-responsive CAGA-luciferase reporter; test: Smad 3-responsive CAGA-luciferase reporter in mural granulosa cells from large antral follicles; format: cell-based, marmoset monkey, Callithrix jacchus; conditions: 48 h; 0.5 ng/ml TGFβ1, 88-265 ng/ml GDF9, 50 ng/ml BMP7 or 60 mouse oocytes
Experimental: (§1) FIGS. 18A and 18B show the activation of the TGF-β signalling pathway by GDF9 and oocytes. MGC from large follicles were transiently transfected with either a Smad 3-responsive CAGA-luciferase reporter construct (A) or a Smad 1-responsive BRE-luciferase reporter construct (B). Cells were subsequently left untreated, treated with 0.5 ng/ml TGFβ1, 88-265 ng/ml GDF9, 50 ng/ml BMP7 or co-cultured with 60 mouse oocytes. Cells were cultured for 48 h after which time luciferase activity was measured from cell extracts. Bars represent means+/− SEM from 3 replicate experiments expressed as a fold change relative to control.
(§2) Luciferase reporter constructs responsive to specific phosphorylated Smads were used to detect the activation of mural GC Smad proteins by recombinant GDF9 Mural GCs were collected and processed as described above, except cells were given a final wash in DMEM(MP Biomedicals, Seven Hills, Australia)+2% FCS (Trace Biosciences, Castle Hill, Australia). Following the final wash, cells were transferred to individual wells of a 96-well plate (Falcon) and cultured at 1.6×10^5 cells/ml. After 4 hours of culture, cells were transiently transfected with 50 ng of luciferase reporter construct DNA using Fugene 6 (Roche Diagnostics, Castle Hill, Australia). 18 hours after transfection, medium was aspirated from cells and replaced with DMEM supplemented with 0.1% FCS. Various ligands were added to cells at this point (see below) and the culture period extended for a further 48 hours. Experiments were terminated by removing media from wells and freezing plates at −20° C. […]
(§3) Seven adult female marmosets were primed with […] for 6 days, whole ovaries were removed on day 7, follicles manually excised, and GC were then collected from 3 size classes: periantral (PA; 0.42-0.66 mm), small antral (SA; 0.66-1.5 mm) and large antral (LA; >1.5 mm). […] In order to determine the effects of GDF9 on marmoset GC proliferation, we employed a GC bioassay whereby after 24 h ^3H-thymidine incorporation is assessed as an indicator of DNA synthesis and cellular proliferation. […]

[3] = system: Smad 1-responsive BRE-luciferase reporter; test: Smad 1-responsive BRE-luciferase reporter in mural granulosa cells from large antral follicles; format: cell-based, marmoset monkey, Callithrix jacchus; conditions: 48 h; 0.5 ng/ml TGFβ1, 88-265 ng/ml GDF9, 50 ng/ml BMP7 or 60 mouse oocytes
Experimental: as §1, §2, §3

[4] = system: mural granulosa cells; test: Mural granulosa cell DNA synthesis, 3H-thymidine incorporation; format: cell-based, marmoset monkey, Callithrix jacchus; conditions: peri antral, small antral and large antral follicles; most notably small follicles, synergism with IGF1
Experimental: Mural GC from large antral follicles were cultured for 24h and thymidine incorporation was stimulated with 175 ng/ml GDF9. […] Bars/points represent means+/−SEM from 3 replicate experiments expressed as a fold change relative to control.
Follicles were manually excised and separated into 3 size classes: periantral (PA; 0.42-0.66 mm), small antral (SA; 0.66-1.5 mm) and large antral (LA; >1.5 mm). GCs from each follicle size were collected and pooled, then washed twice in bicarbonate-buffered tissue culture medium-199 (B-TCM) supplemented with 0.3 mg/ml of polyvinyl alcohol (PVA, Sigma). Depending on the individual experiments, mural GCs (1×10^5 cells/ml), hormones, inhibitors and media were added to wells of 96-well plates (Falcon) to give a final volume of 125 μl. Within each experiment, all treatments were carried out in at least duplicate wells and each experiment was replicated on at least 3 occasions. Cells were cultured in an atmosphere of 37° C., 96% humidity in 5% CO2 in air for 18 hours, followed by a further 6 hour pulse of 15.4 kBq tritiated thymidine (3H-thymidine, ICN) under the same conditions.
Seven adult female marmosets were primed with […] for 6 days, whole ovaries were removed on day 7, follicles manually excised, and GC were then collected from 3 size classes: periantral (PA; 0.42-0.66 mm), small antral (SA; 0.66-1.5 mm) and large antral (LA; >1.5 mm). Four different approaches were utilized to examine GDF9 function in GC. […] To examine the GDF9 signalling pathway, cultured GC from LA follicles were transfected with either a CAGA-luciferase or BRE-luciferase reporter construct and treated with various TGF-β superfamily growth factors or co-cultured with mouse oocytes. In order to determine the effects of GDF9 on marmoset GC proliferation, we employed a GC bioassay whereby after 24 h ^3H-thymidine incorporation is assessed as an indicator of DNA synthesis and cellular proliferation. […] In another experiment, GC were treated with an increasing dose of SB431542, an activin-like kinase (ALK) 4/5/7 inhibitor, in the presence of GDF9+/−IGF1.

[5] = system: cumulus-oocyte complexes; test: Study V: oocyte IVM with GDF9, cumulus expansion and embryo development; format: cell-based, mice; conditions: 200 ng/ml GDF9 with FSH/EGF
Experimental: (§4) Oocytes (n=1106) were then fertilised and cultured to the blastocyst stage in G1.2/G2.2 medium at 37° C. in 6% CO2 5% O2. Blastocysts were pooled and either transferred to pseudo-pregnant Swiss females or differentially stained. Pregnancy outcome was assessed on Day 15 of pregnancy.

[6] = Study V: pregnancy outcome after transfer of blastocysts to pseudo-pregnant females; format: in vivo, mice; conditions: oocytes matured with 200 ng/ml GDF9, Day 15 of pregnancy
Experimental: as §4

B1: GDF-9: Recombinant mouse GDF-9 produced in-house in transfected 293H cells, partially purified by HIC (protein, UniProt Q07105 307-441, looked up)
Growth/differentiation factor …: GQKAIRSEAKGPLLTASFNLSEYFKQFLFPQNECELHDFRLSFSQLKWDNWIVAPHRYNPRYCKGDCPRAVRHRYGSPVHTMVQNIIYEKLDPSVPRPSCVPGKYSPLSVLTIEPDGSIAYKEYEDMIATRCTCR
- cumulus expansion score [1]: 3.7±0.1
- CAGA-luciferase activity above control levels [2]: 5 fold
- BRE-luciferase activity compared to control levels [3]: not activated
- GC DNA synthesis [4]: stimulates GC DNA synthesis in all follicle sizes
- fertilisation, rate of development or blastocyst percentages [5]: no significant effect
- blastocyst total cell number ([5]; P=0.05): significantly increased
- cumulus expansion index ([5]; vs 2.4±0.1): 3.1±0.1
- blastocyst percentages ([5]; vs 75%, no significant effect): 83%
- fetal development ([6]; vs 21%, P=0.04): 39%
- implantation ([6]; vs 77%, not affected): 83%
